How the values were obtained:
[1] = molecular target: T1, FcεRII (CD23) on IM9 cells (human) (UniProt P06734); experiment: FACS, 5 ug/ml, IM9 cells
T1 sequence (looked up): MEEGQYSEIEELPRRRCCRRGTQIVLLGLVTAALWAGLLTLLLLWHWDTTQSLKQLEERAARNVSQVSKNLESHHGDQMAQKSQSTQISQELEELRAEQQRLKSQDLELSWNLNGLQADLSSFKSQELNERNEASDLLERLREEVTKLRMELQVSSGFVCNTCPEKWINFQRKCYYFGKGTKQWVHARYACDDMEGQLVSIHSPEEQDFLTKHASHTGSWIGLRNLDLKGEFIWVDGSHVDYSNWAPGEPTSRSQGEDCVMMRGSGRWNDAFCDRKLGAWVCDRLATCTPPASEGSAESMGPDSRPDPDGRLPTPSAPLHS

[2] = molecular target: T1, FcεRII (CD23) on IM9 cells (human); experiment: FACS, 0.5 ug/ml, IM9 cells
[3] = molecular target: FcεRI alpha chain on CHO 3D10 cells (UniProt P12319); experiment: FACS, 0.5 ug/ml, CHO 3D10 cells
[4] = molecular target: FcεRI alpha chain on CHO 3D10 cells (UniProt P12319); experiment: FACS, 5 ug/ml, CHO 3D10 cells
[5] = molecular target: T1, FcεRII (CD23) on IM9 cells (human); experiment: FACS, 0.1 ug/ml, IM9 cells
[6] = molecular target: T1, FcεRII (CD23) on IM9 cells (human); experiment: FACS, 10 ug/ml, IM9 cells
[7] = molecular target: FcεRI alpha chain on CHO 3D10 cells (UniProt P12319); experiment: FACS, 0.1 ug/ml, CHO 3D10 cells
[8] = molecular target: FcεRI alpha chain on CHO 3D10 cells (UniProt P12319); experiment: FACS, 10 ug/ml, CHO 3D10 cells
[9] = molecular target: T1, FcεRII (CD23) on IM9 cells (human); experiment: FACS, 1.65 ug/ml, IM9 cells
[10] = molecular target: FcεRI alpha chain on CHO 3D10 cells (UniProt P12319); experiment: FACS, 1.65 ug/ml, CHO 3D10 cells

Chain of FcεRI alpha chain on CHO 3D10 cells (P12319 26-257 limits assumed): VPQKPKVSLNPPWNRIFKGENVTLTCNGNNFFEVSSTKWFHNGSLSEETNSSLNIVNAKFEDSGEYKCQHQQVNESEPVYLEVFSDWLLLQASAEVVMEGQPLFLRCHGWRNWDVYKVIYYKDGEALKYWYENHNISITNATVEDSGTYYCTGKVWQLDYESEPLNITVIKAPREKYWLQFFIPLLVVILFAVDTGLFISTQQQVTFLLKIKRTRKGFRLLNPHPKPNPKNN
Chain of human IgE (U266 IgE) (P01854 whole entry): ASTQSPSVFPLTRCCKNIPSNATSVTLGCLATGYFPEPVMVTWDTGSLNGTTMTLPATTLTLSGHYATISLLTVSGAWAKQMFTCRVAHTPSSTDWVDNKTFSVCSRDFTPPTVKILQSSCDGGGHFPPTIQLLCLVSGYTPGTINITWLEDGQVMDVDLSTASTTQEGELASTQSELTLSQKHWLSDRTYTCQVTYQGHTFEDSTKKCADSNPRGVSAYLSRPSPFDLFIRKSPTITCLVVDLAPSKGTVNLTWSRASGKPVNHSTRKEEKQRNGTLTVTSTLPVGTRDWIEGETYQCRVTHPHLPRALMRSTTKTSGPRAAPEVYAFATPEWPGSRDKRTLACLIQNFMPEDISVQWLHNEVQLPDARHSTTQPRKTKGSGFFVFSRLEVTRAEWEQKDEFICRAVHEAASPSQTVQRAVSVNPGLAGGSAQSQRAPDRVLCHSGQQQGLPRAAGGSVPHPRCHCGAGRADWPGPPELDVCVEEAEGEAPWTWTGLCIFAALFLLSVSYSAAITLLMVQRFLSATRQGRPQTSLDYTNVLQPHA
Chain of human IgE mutant 4 (loop EF exchanged) (P01854 other isoform, or with tags, fused parts or gaps, change not shown): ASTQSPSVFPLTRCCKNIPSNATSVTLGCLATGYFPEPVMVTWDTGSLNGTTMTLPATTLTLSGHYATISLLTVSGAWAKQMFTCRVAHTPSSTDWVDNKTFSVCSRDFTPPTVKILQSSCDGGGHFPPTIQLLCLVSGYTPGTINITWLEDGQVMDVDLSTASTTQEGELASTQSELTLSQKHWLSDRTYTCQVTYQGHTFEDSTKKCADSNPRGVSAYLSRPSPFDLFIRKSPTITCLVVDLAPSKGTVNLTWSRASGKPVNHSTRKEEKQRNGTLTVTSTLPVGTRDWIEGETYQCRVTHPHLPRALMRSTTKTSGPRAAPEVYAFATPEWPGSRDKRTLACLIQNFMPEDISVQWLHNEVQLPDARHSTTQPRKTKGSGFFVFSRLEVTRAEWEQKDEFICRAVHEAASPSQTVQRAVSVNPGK
Chain of human IgE mutant 9 (N403A, T405A) (P01854 other isoform, or with tags, fused parts or gaps, stated change not applied): as the sequence (P01854 other isoform, or with tags, fused parts or gaps, change not shown) above
Chain of human IgE mutant 11 (Q455A, R457A, T459A) (P01854 other isoform, or with tags, fused parts or gaps, stated change not applied): as the sequence (P01854 other isoform, or with tags, fused parts or gaps, change not shown) above
Chain of human IgE mutant 5 (loop FG exchanged) (P01854 other isoform, or with tags, fused parts or gaps, change not shown): as above
Chain of human IgE mutant 10 (T438A, T440A) (P01854 other isoform, or with tags, fused parts or gaps, stated change not applied): as the sequence (P01854 other isoform, or with tags, fused parts or gaps, change not shown) above
Chain of human IgE mutant 3 (loop CD exchanged) (P01854 other isoform, or with tags, fused parts or gaps, change not shown): as above
Chain of human IgE mutant 6 (β-strand D exchanged) (P01854 other isoform, or with tags, fused parts or gaps, change not shown): as above
Chain of human IgE mutant 1 (loop AB exchanged for human IgG1 loop) (P01854 other isoform, or with tags, fused parts or gaps, change not shown): as above
Chain of human IgE mutant 7 (383-385 RKS to AAA) (P01854 other isoform, or with tags, fused parts or gaps, change not shown): as above
Chain of human IgE mutant 2 (loop BC exchanged) (P01854 other isoform, or with tags, fused parts or gaps, change not shown): as above
Chain of human IgE mutant 13 (Fcε2: 329-331 and 334-336 to Ala) (P01854 other isoform, or with tags, fused parts or gaps, change not shown): as above
Chain of human IgE mutant 8 (T387A, T389A) (P01854 other isoform, or with tags, fused parts or gaps, stated change not applied): as the sequence (P01854 other isoform, or with tags, fused parts or gaps, change not shown) above
Chain of human IgE mutant 12 (S471A, T473A) (P01854 other isoform, or with tags, fused parts or gaps, stated change not applied): as the sequence (P01854 other isoform, or with tags, fused parts or gaps, change not shown) above

| Substance | % IM9 (+) [9] [%] | % CHO 3D10 (+) [10] [%] | further results |
| --- | --- | --- | --- |
| human IgE (U266 IgE) (from UniProt P01854 1-546) (antibody) | – | – | % IM9 (+) [1]: 82.6%; % IM9 (+) [2]: 4.6%; % CHO 3D10 (+) [3]: 59.6%; % CHO 3D10 (+) [4]: 89.9%; % IM9 (+) [5]: 1.7%; % IM9 (+) [6]: 92.5%; % CHO 3D10 (+) [7]: 15.8%; % CHO 3D10 (+) [8]: 90.3% |
| human IgE mutant 1 (loop AB exchanged for human IgG1 loop) (from UniProt P01854 1-428) (antibody) | 4.3 | 1.7 | – |
| human IgE mutant 2 (loop BC exchanged) (from UniProt P01854 1-428) (antibody) | 48.9 | 34.3 | – |
| human IgE mutant 3 (loop CD exchanged) (from UniProt P01854 1-428) (antibody) | 1.2 | 32.3 | – |
| human IgE mutant 4 (loop EF exchanged) (from UniProt P01854 1-428) (antibody) | 9.2 | 4.9 | – |
| human IgE mutant 5 (loop FG exchanged) (from UniProt P01854 1-428) (antibody) | 73.9 | 60.5 | – |
| human IgE mutant 6 (β-strand D exchanged) (from UniProt P01854 1-428) (antibody) | 71.6 | 1.4 | – |
| human IgE mutant 7 (383-385 RKS to AAA) (from UniProt P01854 1-428) (antibody) | 4.6 | 76.4 | – |
| human IgE mutant 8 (T387A, T389A) (from UniProt P01854 1-428) (antibody) | 16.3 | 70.3 | – |
| human IgE mutant 9 (N403A, T405A) (from UniProt P01854 1-428) (antibody) | 94.3 | 84.2 | – |
| human IgE mutant 10 (T438A, T440A) (from UniProt P01854 1-428) (antibody) | 84.8 | 67.5 | – |
| human IgE mutant 11 (Q455A, R457A, T459A) (from UniProt P01854 1-428) (antibody) | 61.5 | 70.8 | – |
| human IgE mutant 12 (S471A, T473A) (from UniProt P01854 1-428) (antibody) | 90.3 | 84.7 | – |
| human IgE mutant 13 (Fcε2: 329-331 and 334-336 to Ala) (from UniProt P01854 1-428) (antibody) | 96.1 | 85.7 | – |

From patent US20030044858A1
